In patent US20240269180A1:

What was measured:
[1] = target: PD-1 on tumor infiltrating lymphocytes (human) (UniProt Q15116); test: flow cytometry of tumor digest H3046 stained with anti-PD-1 clone EH12.2H7; percent of CD3+ cells stained PD-1+
[2] = target: PD-1 on tumor infiltrating lymphocytes (human) (UniProt Q15116); test: flow cytometry of tumor digest M1156 stained with anti-PD-1 clone EH12.2H7; percent of CD3+ cells stained PD-1+
[3] = target: PD-1 on tumor infiltrating lymphocytes (human) (UniProt Q15116); test: flow cytometry of tumor digest OV8074 stained with anti-PD-1 clone EH12.2H7; percent of CD3+ cells stained PD-1+

UniProt Q15116, sequence (Q15116 25-288): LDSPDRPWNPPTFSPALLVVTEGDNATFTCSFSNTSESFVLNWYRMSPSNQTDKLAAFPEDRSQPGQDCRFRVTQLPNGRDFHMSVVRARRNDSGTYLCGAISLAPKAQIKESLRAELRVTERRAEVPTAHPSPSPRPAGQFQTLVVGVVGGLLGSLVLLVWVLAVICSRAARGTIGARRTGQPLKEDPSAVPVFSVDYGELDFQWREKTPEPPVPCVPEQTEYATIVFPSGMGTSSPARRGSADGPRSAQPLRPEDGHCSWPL

B1: anti-PD-1 antibody clone EH12.2H7 (antibody, from another filing, V domains shown)
VH: QVQLQQSGAELAKPGASVQMSCKASGYSFTSSWIHWVKQRPGQGLEWIGYIYPSTGFTEYNQKFKDKATLTADKSSSTAYMQLSSLTSEDSAVYYCARWRDSSGYHAMDYWGQGTSVTVSS
VL: DIVLTQSPASLTVSLGQRATISCRASQSVSTSGYSYMHWYQQKPGQPPKLLIKFGSNLESGIPARFSGSGSGTDFTLNIHPVEEEDTATYYCQHSWEIPYTFGGGTKLEIK
[1]
  Pre-sort % PD-1+ (of CD3+): 13%
[2]
  Pre-sort % PD-1+ (of CD3+): 93%
[3]
  Pre-sort % PD-1+ (of CD3+): 70%
